In patent publication US20250122242A1, “SELECTION SYSTEMS, PEPTIDES DETERMINED THEREWITH, AND METHODS OF USING SAME” (Wisconsin Alumni Research Foundation, priority 2023, published 2025):

Columns and labels:
[1] = molecular target: T1, hIAPP (Homo sapiens, UniProt P10997); assay: ThT fluorescence assay of in vitro hIAPP aggregation; assay type: biochemical; conditions: for effect on aggregation lag time (tlag) / inhibition of hIAPP aggregation (ThT fluorescence): 10 μM hIAPP, PBS pH 6.9, 32° C.; for effect on aggregation lag time (tlag): ThT; for activity relative to MCIP-2a: at higher peptide:hIAPP stoichiometries; for inhibition of hIAPP aggregation (ThT fluorescence): chemically synthesized peptide, quiescent
T1 construct: A 1 mg portion of amylin trifluoroacetate salt (Bachem) was purchased as lyophilized solid in a vial; purchased Bachem
T1 sequence (P10997 34-70 limits assumed): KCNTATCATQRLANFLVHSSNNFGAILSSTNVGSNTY
Protocol: Preparation of ThT stock solution. To prepare a stock solution of ThT (2-3 mM), 2-4 mg of ThT was added to 3 mL PBS (pH 6.9) in a 15 mL conical tube. The solution was sonicated for 5 min and the supernatant was filtered through a 0.22 μm syringe filter into a 1.5 mL Eppendorf tube. This was the ThT stock solution to be used in following experiments. 2 mL of a 1:200 diluted ThT solution was prepared by adding 10 μL ThT stock solution into 1990 μL PBS. The absorbance of the diluted ThT solution measured at 412 nm was used to calculate the ThT stock concentration using an extinction coefficient (c) of 31600 M^−1 cm^−1.
Preparation of hIAPP stocks. A 1 mg portion of amylin trifluoroacetate salt (Bachem) was purchased as lyophilized solid in a vial. The solid was dissolved in pre-chilled 2562 μL 35 mM sodium acetate (pH 5.3) to a stock concentration of 100 μM on ice. Aliquots of hIAPP were prepared by transferring 200 μL of the 100 μM hIAPP stock solution to low-protein-binding Eppendorf tubes on ice. The aliquots were then immediately snap frozen using liquid N2, lyophilized for 24 h, and stored at −80° C. until use.
Preparation of samples for ThT assays. Using cyclic peptide stock solution (100 μM) and PBS, 400 μL aqueous solution of cyclic peptide was prepared in a low-protein-binding Eppendorf tube to achieve the desired cyclic peptide:hIAPP molar ratio (80 μM for 4:1, 40 μM for 2:1, 20 μM for 1:1, 10 μM for 0.5:1, 0 μM for 0:1). 30 μL of the solution was then loaded to wells on a black clear-bottom low-binding 96-well plate (Corning 3881) to make a triplicate for each condition. This plate loaded with aqueous solutions of cyclic peptides was then ready for adding hIAPP.
Preparation and addition of hIAPP for ThT assays. Using ThT stock solution and PBS, 1 mL ThT solution (10 μM) was prepared in a low-protein-binding Eppendorf tube and chilled on ice. 0.5 mL of the pre-chilled ThT solution was added to one aliquot of lyophilized hIAPP, which was equilibrated to room temperature before opening the tube. Pipetting up and down four times was performed to facilitate complete dissolving of hIAPP. The 0.5 mL hIAPP-containing solution was immediately transferred to the remaining 0.5 mL ThT solution on ice. Pipetting up and down four times was performed to facilitate complete mixing. The resulting 1 mL hIAPP solution, where [hIAPP]=20 μM, was immediately transferred to a 25 mL liquid reservoir. Using a multi-channel pipette, 30 μL of the hIAPP solution was quickly loaded into wells containing aqueous solutions of cyclic peptides on the 96-well plate. Final [hIAPP]=10 μM, [ThT]=5 μM.
ThT assay conditions. The plate was then quickly covered and incubated in a Tecan M Plex microplate reader under quiescent condition at 32° C. for at least 12 h. ThT fluorescence at 480 nm was measured every 5 min through the bottom of the plate using an excitation wavelength of 440 nm.
Fitting of aggregation kinetics. ThT aggregation kinetics data was fit to a sigmoidal function using GraphPad Prism and the aggregation lag time (tlag) and the apparent fibril elongation rate (kapp) calculated as described.^55

[2] = molecular target: T1, hIAPP; assay: TEM analysis of hIAPP fibril formation; assay type: biochemical; conditions: 10 μM hIAPP, 40 μM cyclic peptide; for hIAPP fibril formation / aggregation onset by TEM: 2 h; for morphology of hIAPP fibrils by TEM: longer incubation (14 h)
Protocol: Transmission electron microscopy (TEM) was performed at the University of Wisconsin School of Medicine and Public Health Electron Microscopy facility. hIAPP and cyclic peptide were dissolved in 25 mM sodium phosphate buffer (pH 6.8 with 0.4% DMSO) to achieve a molar ratio of 1:4 at concentrations of hIAPP=10 μM and cyclic peptide=40 μM. The sample was incubated quiescently at 32° C. before TEM analysis. 2 μL of the sample was placed onto Formvar-coated copper grids and the excess liquid was blotted away. 2 μL of diluted Nano-W solution was then added to stain the grids and the excess liquid was blotted away. The TEM analysis was performed on Philips CM120 at 80 kV and digital images were obtained with an AMT BioSprint12 camera.

## CDLGVFR (cyclised; Circular) [cyclo-CDLGVFR]
[1]
  effect on aggregation lag time (tlag): extended tlag
  activity relative to MCIP-2a: less active than MCIP-2a
  inhibition of hIAPP aggregation (ThT fluorescence): inhibited hNAPP fibrillation
[2]
  hIAPP fibril formation / aggregation onset by TEM: delay hNAPP aggregation
  morphology of hIAPP fibrils by TEM: do not change the overall appearance

## CHVVGVI (cyclised; Circular) [cyclo-CHVVGVI]
[1]
  effect on aggregation lag time (tlag): delaying the aggregation lag time (tlag) in a dose-dependent fashion
  activity relative to MCIP-2a: less active than MCIP-2a
  inhibition of hIAPP aggregation (ThT fluorescence): inhibited hIAPP aggregation
[2]
  hIAPP fibril formation / aggregation onset by TEM: no fibrils are observed
  morphology of hIAPP fibrils by TEM: No gross differences in morphology

## CRCVFSG (cyclised; Circular) [cyclo-CRCVFSG]
[1]
  effect on aggregation lag time (tlag): extended tlag
  activity relative to MCIP-2a: less active than MCIP-2a
  inhibition of hIAPP aggregation (ThT fluorescence): inhibited hNAPP fibrillation
[2]
  hIAPP fibril formation / aggregation onset by TEM: delay hNAPP aggregation
  morphology of hIAPP fibrils by TEM: do not change the overall appearance
